Data: article PMC12102759 (2025)

B1: PIP5K1C peptide 642-657 (Phosphatidylinositol 4-phosphate 5-kinase type-1 gamma), 16-mer library wild type / TLN1 PTB (TLN1 Phosphotyrosine-binding (PTB) domain, residues 309-401) (parent complex)
chain 1: TDERSWVYSPLHYSAQ
chain 2: GVSFFLVKEKMKGKNKLVPRLLGITKECVMRVDEKTKEVIQEWNLTNIKRWAASPKSFTLDFGDYQDGYYSVQTTEGEQIAQLIAGYIDIILK

Variants of: B1
Test: proteomic peptide phage display deep mutational scan (ProP-PD DMS): M13 P8 16-mer library selected against immobilised GST-tagged bait for four days (rounds), NGS of the eluted pools per day and pseudo-replica; bait immobilised on MaxiSorp plates (10 µg), library pre-cleared on GST, 2 h binding at 4 °C, five washes; one round per day, days 1-4; value from days 2 and 3

Variant	screen value
chain 1 D2I	0.000155 average fractional NGS count over selection days 2 and 3 (reads of this peptide / all reads for the bait, averaged over …
chain 1 D2Q	0.00198 average fractional NGS count over selection days 2 and 3 (reads of this peptide / all reads for the bait, averaged over …
chain 1 D2S	0.00166 average fractional NGS count over selection days 2 and 3 (reads of this peptide / all reads for the bait, averaged over …
chain 1 D2T	0.00067 average fractional NGS count over selection days 2 and 3 (reads of this peptide / all reads for the bait, averaged over …
chain 1 D2P	0.00102 average fractional NGS count over selection days 2 and 3 (reads of this peptide / all reads for the bait, averaged over …
chain 1 D2N	0.000972 average fractional NGS count over selection days 2 and 3 (reads of this peptide / all reads for the bait, averaged over …
chain 1 D2V	0.00155 average fractional NGS count over selection days 2 and 3 (reads of this peptide / all reads for the bait, averaged over …
chain 1 D2W	0.0007 average fractional NGS count over selection days 2 and 3 (reads of this peptide / all reads for the bait, averaged over …
chain 1 D2Y	0.000691 average fractional NGS count over selection days 2 and 3 (reads of this peptide / all reads for the bait, averaged over …
chain 1 S5A	0.0049 average fractional NGS count over selection days 2 and 3 (reads of this peptide / all reads for the bait, averaged over …
chain 1 S5F	0.000252 average fractional NGS count over selection days 2 and 3 (reads of this peptide / all reads for the bait, averaged over …
chain 1 S5T	0.0143 average fractional NGS count over selection days 2 and 3 (reads of this peptide / all reads for the bait, averaged over …
chain 1 S5M	0.00508 average fractional NGS count over selection days 2 and 3 (reads of this peptide / all reads for the bait, averaged over …
chain 1 S5E	0.00528 average fractional NGS count over selection days 2 and 3 (reads of this peptide / all reads for the bait, averaged over …
chain 1 S5Y	0.000589 average fractional NGS count over selection days 2 and 3 (reads of this peptide / all reads for the bait, averaged over …
chain 1 S5W	0.000786 average fractional NGS count over selection days 2 and 3 (reads of this peptide / all reads for the bait, averaged over …
chain 1 S5V	0.0006 average fractional NGS count over selection days 2 and 3 (reads of this peptide / all reads for the bait, averaged over …
chain 1 R4T	0.000696 average fractional NGS count over selection days 2 and 3 (reads of this peptide / all reads for the bait, averaged over …
chain 1 R4H	0.00121 average fractional NGS count over selection days 2 and 3 (reads of this peptide / all reads for the bait, averaged over …
chain 1 R4Q	0.00324 average fractional NGS count over selection days 2 and 3 (reads of this peptide / all reads for the bait, averaged over …
chain 1 R4W	0.000409 average fractional NGS count over selection days 2 and 3 (reads of this peptide / all reads for the bait, averaged over …
chain 1 R4V	0.00216 average fractional NGS count over selection days 2 and 3 (reads of this peptide / all reads for the bait, averaged over …
chain 1 R4L	0.00628 average fractional NGS count over selection days 2 and 3 (reads of this peptide / all reads for the bait, averaged over …
chain 1 R4P	0.000771 average fractional NGS count over selection days 2 and 3 (reads of this peptide / all reads for the bait, averaged over …
chain 1 R4A	0.00627 average fractional NGS count over selection days 2 and 3 (reads of this peptide / all reads for the bait, averaged over …

Variant	screen value
chain 1 R4K	0.000222 average fractional NGS count over selection days 2 and 3 (reads of this peptide / all reads for the bait, averaged over …
chain 1 R4F	0.00144 average fractional NGS count over selection days 2 and 3 (reads of this peptide / all reads for the bait, averaged over …
chain 1 R4E	0.00181 average fractional NGS count over selection days 2 and 3 (reads of this peptide / all reads for the bait, averaged over …
chain 1 R4N	0.00121 average fractional NGS count over selection days 2 and 3 (reads of this peptide / all reads for the bait, averaged over …
chain 1 H12R	0.000172 average fractional NGS count over selection days 2 and 3 (reads of this peptide / all reads for the bait, averaged over …
chain 1 H12E	0.00161 average fractional NGS count over selection days 2 and 3 (reads of this peptide / all reads for the bait, averaged over …
chain 1 H12V	0.00311 average fractional NGS count over selection days 2 and 3 (reads of this peptide / all reads for the bait, averaged over …
chain 1 H12D	0.00129 average fractional NGS count over selection days 2 and 3 (reads of this peptide / all reads for the bait, averaged over …
chain 1 H12M	0.0016 average fractional NGS count over selection days 2 and 3 (reads of this peptide / all reads for the bait, averaged over …
chain 1 H12F	0.00153 average fractional NGS count over selection days 2 and 3 (reads of this peptide / all reads for the bait, averaged over …
chain 1 H12L	0.00133 average fractional NGS count over selection days 2 and 3 (reads of this peptide / all reads for the bait, averaged over …
chain 1 H12I	0.000636 average fractional NGS count over selection days 2 and 3 (reads of this peptide / all reads for the bait, averaged over …
chain 1 H12S	0.000155 average fractional NGS count over selection days 2 and 3 (reads of this peptide / all reads for the bait, averaged over …
chain 1 H12Y	0.000256 average fractional NGS count over selection days 2 and 3 (reads of this peptide / all reads for the bait, averaged over …
chain 1 S9A	0.000707 average fractional NGS count over selection days 2 and 3 (reads of this peptide / all reads for the bait, averaged over …
chain 1 S9T	0.000558 average fractional NGS count over selection days 2 and 3 (reads of this peptide / all reads for the bait, averaged over …
chain 1 S9N	0.0022 average fractional NGS count over selection days 2 and 3 (reads of this peptide / all reads for the bait, averaged over …
chain 1 S9D	7.45e-05 average fractional NGS count over selection days 2 and 3 (reads of this peptide / all reads for the bait, averaged over …
chain 1 S9H	0.000148 average fractional NGS count over selection days 2 and 3 (reads of this peptide / all reads for the bait, averaged over …
chain 1 Y13S	0.00787 average fractional NGS count over selection days 2 and 3 (reads of this peptide / all reads for the bait, averaged over …
chain 1 Y13H	0.000476 average fractional NGS count over selection days 2 and 3 (reads of this peptide / all reads for the bait, averaged over …
chain 1 Y13I	0.00816 average fractional NGS count over selection days 2 and 3 (reads of this peptide / all reads for the bait, averaged over …
chain 1 Y13W	0.000603 average fractional NGS count over selection days 2 and 3 (reads of this peptide / all reads for the bait, averaged over …
chain 1 Y13K	0.000613 average fractional NGS count over selection days 2 and 3 (reads of this peptide / all reads for the bait, averaged over …
chain 1 Y13T	0.000772 average fractional NGS count over selection days 2 and 3 (reads of this peptide / all reads for the bait, averaged over …

Variant	screen value
chain 1 Y13L	0.00182 average fractional NGS count over selection days 2 and 3 (reads of this peptide / all reads for the bait, averaged over …
chain 1 Y13R	0.00043 average fractional NGS count over selection days 2 and 3 (reads of this peptide / all reads for the bait, averaged over …
chain 1 Y13V	0.0012 average fractional NGS count over selection days 2 and 3 (reads of this peptide / all reads for the bait, averaged over …
chain 1 Y13N	0.00437 average fractional NGS count over selection days 2 and 3 (reads of this peptide / all reads for the bait, averaged over …
chain 1 Y13Q	0.00224 average fractional NGS count over selection days 2 and 3 (reads of this peptide / all reads for the bait, averaged over …
chain 1 Y8K	0.00106 average fractional NGS count over selection days 2 and 3 (reads of this peptide / all reads for the bait, averaged over …
chain 1 Y8V	0.0101 average fractional NGS count over selection days 2 and 3 (reads of this peptide / all reads for the bait, averaged over …
chain 1 Y8F	0.00543 average fractional NGS count over selection days 2 and 3 (reads of this peptide / all reads for the bait, averaged over …
chain 1 Y8Q	0.00124 average fractional NGS count over selection days 2 and 3 (reads of this peptide / all reads for the bait, averaged over …
chain 1 Y8T	0.0121 average fractional NGS count over selection days 2 and 3 (reads of this peptide / all reads for the bait, averaged over …
chain 1 Y8M	0.00363 average fractional NGS count over selection days 2 and 3 (reads of this peptide / all reads for the bait, averaged over …
chain 1 Y8N	0.00782 average fractional NGS count over selection days 2 and 3 (reads of this peptide / all reads for the bait, averaged over …
chain 1 Y8S	0.00106 average fractional NGS count over selection days 2 and 3 (reads of this peptide / all reads for the bait, averaged over …
chain 1 Y8D	0.00213 average fractional NGS count over selection days 2 and 3 (reads of this peptide / all reads for the bait, averaged over …
chain 1 Y8L	0.0129 average fractional NGS count over selection days 2 and 3 (reads of this peptide / all reads for the bait, averaged over …
chain 1 Y8P	0.000696 average fractional NGS count over selection days 2 and 3 (reads of this peptide / all reads for the bait, averaged over …
chain 1 Y8R	0.0156 average fractional NGS count over selection days 2 and 3 (reads of this peptide / all reads for the bait, averaged over …
chain 1 Y8W	0.004 average fractional NGS count over selection days 2 and 3 (reads of this peptide / all reads for the bait, averaged over …
chain 1 Y8G	0.000458 average fractional NGS count over selection days 2 and 3 (reads of this peptide / all reads for the bait, averaged over …
chain 1 P10T	0.00133 average fractional NGS count over selection days 2 and 3 (reads of this peptide / all reads for the bait, averaged over …
chain 1 P10K	0.00642 average fractional NGS count over selection days 2 and 3 (reads of this peptide / all reads for the bait, averaged over …
chain 1 P10E	0.000515 average fractional NGS count over selection days 2 and 3 (reads of this peptide / all reads for the bait, averaged over …
chain 1 P10Q	0.001 average fractional NGS count over selection days 2 and 3 (reads of this peptide / all reads for the bait, averaged over …
chain 1 P10L	0.00637 average fractional NGS count over selection days 2 and 3 (reads of this peptide / all reads for the bait, averaged over …
chain 1 P10S	0.00055 average fractional NGS count over selection days 2 and 3 (reads of this peptide / all reads for the bait, averaged over …
